This is an account of results in patent US10919943B2, “Mutant proteins enabling agrochemical control of plant gene expression” (The Regents of the University of California, priority 2016, dated 2021).

Substitutions are numbered along the chain they refer to. In names and notes the source's numbering stands.

The target of this test is T1, PYR1 (Arabidopsis thaliana, UniProt O49686).
T1 construct: expressed in transfected cells; host or cells: S. cerevisiae strain Y190
T1 sequence (O49686 1-191): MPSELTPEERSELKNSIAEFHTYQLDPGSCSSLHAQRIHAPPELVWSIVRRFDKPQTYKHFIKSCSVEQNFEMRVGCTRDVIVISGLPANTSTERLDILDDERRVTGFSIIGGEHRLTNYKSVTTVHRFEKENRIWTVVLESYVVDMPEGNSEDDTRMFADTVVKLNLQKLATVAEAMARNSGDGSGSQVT
The test can be described thus: Yeast two hybrid of pACT-HAB1 site saturation mutants with pBD-PYR1 on 10 μM ABA, β-galactosidase staining. In kind it is cell-based. Also on record: key: x: Mutations in HAB1 that disrupt HAB1 interaction with PYR1. The following applies: S. cerevisiae Y190, 10 μM ABA; dead = lack of detectable staining in comparison to wild type control. From the text: To systematically define mutations in HAB1 that disrupt its binding to PYR1, we used site saturation mutagenesis to create a collection all possible single amino acid substitutions in 20 residues lining the PYR1 binding interface, and then assayed the ability of each mutant to bind PYR1 using the yeast two hybrid assay described above. We targeted the following residues for mutagenesis: R199, 5200, E201, E203, H245, G246, G247, S322, E323, T324, K381, I383, Q384, W385, Q386, R389, F391, G392, V393, and Y404. To create the collection of mutations, mutagenic “NNK” site directed mutagenesis primers were synthesized for each of the 20 positions and the primers used in QuickChange site-directed mutagenesis reactions using a previously described pACT-HAB1 template (Park et al., 2009). We note that this clone uses a HAB1 cDNA lacking its three N-terminal amino acids. The reaction products were digested with DpnI, and transformed into competent Escherichia coli DH5α cells and plasmid DNA for 96 colonies per site was isolated using Bioneer AccuPrep® Plasmid Mini Extraction Kit (Alameda, Calif.) and sequenced to identify mutants. This process identified most of the 19 desired mutations per target site; the remaining mutations were constructed directly using specific mutagenic primers. To interrogate the effects of the mutations on PYR1-HAB1 interactions, the mutant clones were individually transformed into S. cerevisiae strain Y190 containing pBD-PYR1 (Park et al., 2009). Yeast transformants were selected for the presence of plasmids on selective SD (-Leu,-Trp) plates and then spotted onto SD (-Leu,-Trp) agar plates supplemented with 10 μM ABA. After incubating the test plates at 30° C. for two days, the colonies were lysed with chloroform and stained to reveal […] expression levels. “Dead” mutants were defined by lack of detectable staining in comparison to a wild type pBD-PYR1/pACT-HAB1 control. This screening effort defined 163 mutations that disrupt the ABA-induced PYR1/HAB1 interaction (Table 2).

B1: I383G: HAB1 mutant (protein, listed as Arabidopsis thaliana)
chain: MEEMTPAVAMTLSLAANTMCESSPVEITQLKNVTDAADLLSDSENQSFCNGGTECTMEDVSELEEVGEQDLLKTLSDTRSGSSNVFDEDDVLSVVEDNSAVISEGLLVVDAGSELSLSNTAMEIDNGRVLATAIIVGESSIEQVPTAEVLIAGVNQDTNTSEVVIRLPDENSNHLVKGRSVYELDCIPLWGTVSIQGNRSEMEDAFAVSPHFLKLPIKMLMGDHEGMSPSLTHLTGHFFGVYDGHGGHKVADYCRDRLHFALAEEIERIKDELCKRNTGEGRQVQWDKVFTSCFLTVDGEIEGKIGRAVVGSSDKVLEAVASETVGSTAVVALVCSSHIVVSNCGDSRAVLFRGKEAMPLSVDHKPDREDEYARIENAGGKVGQWQGARVFGVLAMSRSIGDRYLKPYVIPEPEVTFMPRSREDECLILASDGLWDVMNNQEVCEIARRRILMWHKKNGAPPLAERGKGIDPACQAAADYLSMLALQKGSKDNISIIVIDLKAQRKFKTRT
For B1, the “Mutations in HAB1 that disrupt HAB1 interaction with PYR1” value (“Mutations” below) was “x”.

B2: E323L: HAB1 mutant (protein, UniProt Q9CAJ0 23-511, looked up, variant E323L)
Protein phosphatase 2C 16: SPVEITQLKNVTDAADLLSDSENQSFCNGGTECTMEDVSELEEVGEQDLLKTLSDTRSGSSNVFDEDDVLSVVEDNSAVISEGLLVVDAGSELSLSNTAMEIDNGRVLATAIIVGESSIEQVPTAEVLIAGVNQDTNTSEVVIRLPDENSNHLVKGRSVYELDCIPLWGTVSIQGNRSEMEDAFAVSPHFLKLPIKMLMGDHEGMSPSLTHLTGHFFGVYDGHGGHKVADYCRDRLHFALAEEIERIKDELCKRNTGEGRQVQWDKVFTSCFLTVDGEIEGKIGRAVVGSSDKVLEAVASLTVGSTAVVALVCSSHIVVSNCGDSRAVLFRGKEAMPLSVDHKPDREDEYARIENAGGKVIQWQGARVFGVLAMSRSIGDRYLKPYVIPEPEVTFMPRSREDECLILASDGLWDVMNNQEVCEIARRRILMWHKKNGAPPLAERGKGIDPACQAAADYLSMLALQKGSKDNISIIVIDLKAQRKFKTRT
Turning to B2, the “Mutations” value is “x”.

B3: W385C: HAB1 mutant (protein, UniProt Q9CAJ0 23-511, looked up, variant W385C)
Protein phosphatase 2C 16: B2 Protein phosphatase 2C 16 with L301E, W363C
Take B3: the “Mutations” value was “x”.

B4: W385R: HAB1 mutant (protein, UniProt Q9CAJ0 23-511, looked up, variant W385R)
Protein phosphatase 2C 16: B2 Protein phosphatase 2C 16 with L301E, W363R
Turning to B4, the “Mutations” value is given as “x”.

B5: W385P: HAB1 mutant (protein, UniProt Q9CAJ0 23-511, looked up, variant W385P)
Protein phosphatase 2C 16: B2 Protein phosphatase 2C 16 with L301E, W363P
Take B5: the “Mutations” value was “x”.

B6: I383K: HAB1 mutant (protein, UniProt Q9CAJ0 23-511, looked up, variant I383K)
Protein phosphatase 2C 16: B2 Protein phosphatase 2C 16 with L301E, I361K
Turning to B6, the “Mutations” value is given as “x”.

B7: W385L: HAB1 mutant (protein, UniProt Q9CAJ0 23-511, looked up, variant W385L)
Protein phosphatase 2C 16: B2 Protein phosphatase 2C 16 with L301E, W363L
Turning to B7, the “Mutations” value is reported as “x”.

B8: I383T: HAB1 mutant (protein, UniProt Q9CAJ0 23-511, looked up, variant I383T)
Protein phosphatase 2C 16: B2 Protein phosphatase 2C 16 with L301E, I361T
Regarding B8, the “Mutations” value was “x”.

B9: I383D: HAB1 mutant (protein, UniProt Q9CAJ0 23-511, looked up, variant I383D)
Protein phosphatase 2C 16: B2 Protein phosphatase 2C 16 with L301E, I361D
In the case of B9, the “Mutations” value is on record as “x”.

B10: W385S: HAB1 mutant (protein, UniProt Q9CAJ0 23-511, looked up, variant W385S)
Protein phosphatase 2C 16: B2 Protein phosphatase 2C 16 with L301E, W363S
Turning to B10, the “Mutations” value was “x”.

B11: K381W: HAB1 mutant (protein, UniProt Q9CAJ0 23-511, looked up, variant K381W)
Protein phosphatase 2C 16: B2 Protein phosphatase 2C 16 with L301E, K359W
With B11, the “Mutations” value was “x”.

B12: I383S: HAB1 mutant (protein, UniProt Q9CAJ0 23-511, looked up, variant I383S)
Protein phosphatase 2C 16: B2 Protein phosphatase 2C 16 with L301E, I361S
As to B12, the “Mutations” value is “x”.

B13: I383Q: HAB1 mutant (protein, UniProt Q9CAJ0 23-511, looked up, variant I383Q)
Protein phosphatase 2C 16: B2 Protein phosphatase 2C 16 with L301E, I361Q
For the molecule B13, the “Mutations” value was “x”.

B14: I383H: HAB1 mutant (protein, UniProt Q9CAJ0 23-511, looked up, variant I383H)
Protein phosphatase 2C 16: B2 Protein phosphatase 2C 16 with L301E, I361H
As to B14, the “Mutations” value is “x”.

B15: W385T: HAB1 mutant (protein, UniProt Q9CAJ0 23-511, looked up, variant W385T)
Protein phosphatase 2C 16: B2 Protein phosphatase 2C 16 with L301E, W363T
Turning to B15, the “Mutations” value is recorded as “x”.

B16: I383R: HAB1 mutant (protein, UniProt Q9CAJ0 23-511, looked up, variant I383R)
Protein phosphatase 2C 16: B2 Protein phosphatase 2C 16 with L301E, I361R
As to B16, the “Mutations” value is listed as “x”.

B17: W385Q: HAB1 mutant (protein, UniProt Q9CAJ0 23-511, looked up, variant W385Q)
Protein phosphatase 2C 16: B2 Protein phosphatase 2C 16 with L301E, W363Q
As for B17, the “Mutations” value is listed as “x”.

B18: W385Y: HAB1 mutant (protein, UniProt Q9CAJ0 23-511, looked up, variant W385Y)
Protein phosphatase 2C 16: B2 Protein phosphatase 2C 16 with L301E, W363Y
Take B18: the “Mutations” value is on record as “x”.

B19: I383P: HAB1 mutant (protein, UniProt Q9CAJ0 23-511, looked up, variant I383P)
Protein phosphatase 2C 16: B2 Protein phosphatase 2C 16 with L301E, I361P
As for B19, the “Mutations” value is reported as “x”.

B20: I383N: HAB1 mutant (protein, UniProt Q9CAJ0 23-511, looked up, variant I383N)
Protein phosphatase 2C 16: B2 Protein phosphatase 2C 16 with L301E, I361N
For the molecule B20, the “Mutations” value is recorded as “x”.

B21: W385D: HAB1 mutant (protein, UniProt Q9CAJ0 23-511, looked up, variant W385D)
Protein phosphatase 2C 16: B2 Protein phosphatase 2C 16 with L301E, W363D
On to B21, for which the “Mutations” value was “x”.

B22: W385A: HAB1 mutant (protein, UniProt Q9CAJ0 23-511, looked up, variant W385A)
Protein phosphatase 2C 16: B2 Protein phosphatase 2C 16 with L301E, W363A
Consider B22, for which the “Mutations” value is given as “x”.

B23: W385M: HAB1 mutant (protein, UniProt Q9CAJ0 23-511, looked up, variant W385M)
Protein phosphatase 2C 16: B2 Protein phosphatase 2C 16 with L301E, W363M
Regarding B23, the “Mutations” value was “x”.

B24: W385N: HAB1 mutant (protein, UniProt Q9CAJ0 23-511, looked up, variant W385N)
Protein phosphatase 2C 16: B2 Protein phosphatase 2C 16 with L301E, W363N
On to B24, for which the “Mutations” value is given as “x”.

B25: W385V: HAB1 mutant (protein, UniProt Q9CAJ0 23-511, looked up, variant W385V)
Protein phosphatase 2C 16: B2 Protein phosphatase 2C 16 with L301E, W363V
Take B25: the “Mutations” value is listed as “x”.

B26: I383Y: HAB1 mutant (protein, UniProt Q9CAJ0 23-511, looked up, variant I383Y)
Protein phosphatase 2C 16: B2 Protein phosphatase 2C 16 with L301E, I361Y
Regarding B26, the “Mutations” value is reported as “x”.

B27: I383E: HAB1 mutant (protein, UniProt Q9CAJ0 23-511, looked up, variant I383E)
Protein phosphatase 2C 16: B2 Protein phosphatase 2C 16 with L301E, I361E
Take B27: the “Mutations” value is “x”.

B28: I383W: HAB1 mutant (protein, UniProt Q9CAJ0 23-511, looked up, variant I383W)
Protein phosphatase 2C 16: B2 Protein phosphatase 2C 16 with L301E, I361W
As for B28, the “Mutations” value is reported as “x”.
